Changes are numbered by the printed parent chain. One block for each molecule: values may come before it.
Key:
MEDI-579 Fab (human) = assay: SPR; BIAcore T100; antibody (MEDI-579 Fab) amine-coupled to a CM3 sensorchip at about 500 RU; serial dilution of PAI-1 between 6.25 nM and 25 pM in HBS-EP+ passed over the surface
[1] = target: human plasminogen activator inhibitor-1 (PAI-1), active (native) form (Homo sapiens, UniProt P05121, glycosylated (SPR preparation))
rat PAI-1 = target: T1, rat PAI-1 (Rattus norvegicus, UniProt P20961); assay: SPR; BIAcore T100; antibody (MEDI-579 Fab) amine-coupled to a CM3 sensorchip at about 500 RU; serial dilution of PAI-1 between 6.25 nM and 25 pM in HBS-EP+ passed over the surface; settings: both partners purified
T1 construct: source: bought: Molecular Innovations (SPR)
T1 sequence (P20961 24-402): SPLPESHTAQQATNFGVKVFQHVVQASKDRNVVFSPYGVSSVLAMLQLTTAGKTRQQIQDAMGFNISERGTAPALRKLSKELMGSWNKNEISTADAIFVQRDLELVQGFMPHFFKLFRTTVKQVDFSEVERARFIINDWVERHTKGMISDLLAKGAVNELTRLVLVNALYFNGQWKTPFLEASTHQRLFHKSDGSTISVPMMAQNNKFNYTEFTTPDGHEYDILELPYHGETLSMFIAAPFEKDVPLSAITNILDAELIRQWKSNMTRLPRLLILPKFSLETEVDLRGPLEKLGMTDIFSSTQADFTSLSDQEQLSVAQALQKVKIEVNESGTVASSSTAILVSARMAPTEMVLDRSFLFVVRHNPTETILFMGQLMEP

MEDI-579 Fab (human), sequence (light, as listed by the source): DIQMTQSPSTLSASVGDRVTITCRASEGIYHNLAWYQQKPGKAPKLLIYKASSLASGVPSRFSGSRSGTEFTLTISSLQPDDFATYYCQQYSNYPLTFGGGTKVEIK
human plasminogen activator inhibitor-1 (PAI-1), active (native) form (Homo sapiens, UniProt P05121, glycosylated (SPR preparation)), sequence (P05121 24-402): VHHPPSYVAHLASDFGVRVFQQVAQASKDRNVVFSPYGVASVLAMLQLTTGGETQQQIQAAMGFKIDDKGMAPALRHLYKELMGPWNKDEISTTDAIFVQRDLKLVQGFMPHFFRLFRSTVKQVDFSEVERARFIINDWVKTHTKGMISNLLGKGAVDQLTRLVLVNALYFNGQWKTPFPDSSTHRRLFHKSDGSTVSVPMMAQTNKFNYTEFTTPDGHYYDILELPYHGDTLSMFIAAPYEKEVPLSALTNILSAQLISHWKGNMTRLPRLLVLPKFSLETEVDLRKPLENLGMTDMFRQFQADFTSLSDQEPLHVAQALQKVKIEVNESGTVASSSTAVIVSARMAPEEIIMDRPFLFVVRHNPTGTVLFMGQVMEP

Kd (MEDI-579 Fab (human)): 6 pM
koff (MEDI-579 Fab (human)): 4.18e-05 s⁻¹
kon (MEDI-579 Fab (human)): 7.02e+06 M⁻¹ s⁻¹
Molecule: human plasminogen activator inhibitor-1 (PAI-1), active (native) form (from UniProt P05121 24-402) (natural protein)

binding result [1]: binds
B1: Parent (antibody, V domains shown)
VH: QVQLQQSGAEVKKPGSSVKVSCKASGGTFSSYAISWVRQAPGQGLEWMGGIIPIFDTANYAQKFQGRVTITADESTSTAYMELSSLRSEDTAVYYCAREKRQWLEGHFDYWGRGTLVTVSS
VL: DIQMTQSPSFLSASIGDRVTITCRASEGIYHWLAWYQQKPGKAPKLLIYKASSLASGAPSRFSGSGSGTDFTLTISSLQPDDFATYYCQQYSNYPLTFGGGTKLEIK

Kd (rat PAI-1): 105 pM
koff (rat PAI-1): 0.000797 s⁻¹
kon (rat PAI-1): 7.64e+06 M⁻¹ s⁻¹
B2: MEDI-579 Fab (Fab, V domains shown)
VH: B1 VH with Q5V, I54T, D56G, K100R
VL: B1 VL with F10T, I15V, W32N, A58V, G66R, D70E, L104V
notes: heavy chain of the Fab; closest germline IGHV1-69*12; light chain of the Fab; closest germline IGKV1-5*03; The Fab for crystallisation was made by papain digestion of the IgG1

Reference: paper PMC6367345 (Scientific Reports, 2019)
